Values quoted from earlier work, collected in PMC8515877.

Target: GnRH receptor (Mus musculus) (UniProt Q01776)
Chain of UniProt Q01776 (Q01776 whole entry): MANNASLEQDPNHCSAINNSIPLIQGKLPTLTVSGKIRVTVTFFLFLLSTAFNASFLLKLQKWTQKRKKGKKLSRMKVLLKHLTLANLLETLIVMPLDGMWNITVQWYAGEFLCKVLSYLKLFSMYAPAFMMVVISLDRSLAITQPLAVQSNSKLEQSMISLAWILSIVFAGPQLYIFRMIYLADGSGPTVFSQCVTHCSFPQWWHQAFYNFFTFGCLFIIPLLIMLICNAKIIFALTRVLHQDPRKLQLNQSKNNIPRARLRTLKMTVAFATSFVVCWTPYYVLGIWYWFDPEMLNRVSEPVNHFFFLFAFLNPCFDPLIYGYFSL

Chain of GnRH (P13562 whole entry, looked up): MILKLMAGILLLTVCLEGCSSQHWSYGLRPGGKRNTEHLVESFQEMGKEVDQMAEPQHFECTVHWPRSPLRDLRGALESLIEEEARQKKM

Kd: 1.4 nM
Substance: GnRH (from UniProt P13562)
